PMC4646777 (Science Advances, 2015)

T1: Gal4 DBD-NINJA full length (Arabidopsis, UniProt Q9SV55 1-425)
T1 sequence (looked up): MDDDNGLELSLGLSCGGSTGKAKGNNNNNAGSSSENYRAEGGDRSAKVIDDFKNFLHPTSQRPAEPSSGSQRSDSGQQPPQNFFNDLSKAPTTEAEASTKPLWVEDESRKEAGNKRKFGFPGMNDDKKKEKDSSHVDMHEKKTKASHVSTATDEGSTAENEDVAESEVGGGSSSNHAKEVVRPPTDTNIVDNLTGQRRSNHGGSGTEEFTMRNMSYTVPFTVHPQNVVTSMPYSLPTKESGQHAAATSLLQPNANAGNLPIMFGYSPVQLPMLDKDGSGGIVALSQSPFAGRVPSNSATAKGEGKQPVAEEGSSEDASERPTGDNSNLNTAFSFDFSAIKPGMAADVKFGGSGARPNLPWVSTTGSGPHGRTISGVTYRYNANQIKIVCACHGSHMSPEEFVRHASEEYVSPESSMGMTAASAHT

T2: H6-tagged OsTPR2 N-terminal domain (TPD), TPR2(1–210) (rice, UniProt Q5NBT9 1-210)
T2 sequence (looked up): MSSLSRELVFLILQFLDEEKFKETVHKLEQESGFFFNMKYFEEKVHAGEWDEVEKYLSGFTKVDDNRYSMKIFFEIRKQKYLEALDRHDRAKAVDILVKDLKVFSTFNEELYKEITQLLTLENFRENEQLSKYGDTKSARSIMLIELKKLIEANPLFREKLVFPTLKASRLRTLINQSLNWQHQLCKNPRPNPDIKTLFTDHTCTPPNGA


How the values were obtained:
[1] = molecular target: TraM-NINJA EAR fusion protein (tetrameric), untagged (not stated | Arabidopsis); experiment: SEC
[2] = molecular target: H6-tagged OsTPR2 N-terminal domain (TPD), TPR2(1–210) (rice) (UniProt Q5NBT9); experiment: AlphaScreen or HTRF
[3] = molecular target: T1, Gal4 DBD-NINJA full length; experiment: two-hybrid
SEC = molecular target: the molecule itself; experiment: SEC
crystal structure = molecular target: the molecule itself; experiment: crystal structure
[4] = molecular target: T2, H6-tagged OsTPR2 N-terminal domain …; experiment: AlphaScreen or HTRF

Molecule | stoichiometry N (SEC) | further results
TraM-NINJA EAR fusion protein (tetrameric), untagged | – | stoichiometry N [1]: 4; IC50 [2]: 0.16 µM
VP16-OsTPR2 full length (natural protein, rice, UniProt Q5NBT9 1-1129, looked up) MSSLSRELVFLILQFLDEEKFKETVHKLEQESGFFFNMKYFEEKVHAGEWDEVEKYLSGFTKVDDNRYSMKIFFEIRKQKYLEALDRHDRAKAVDILVKDLKVFSTFNEELYKEITQLLTLENFRENEQLSKYGDTKSARSIMLIELKKLIEANPLFREKLVFPTLKASRLRTLINQSLNWQHQLCKNPRPNPDIKTLFTDHTCTPPNGARASPVSVPLAAVPKAGGTYPPLTAHTPFQPPPAGPSLAGWMANAAAATSSVPSAVVAASSLPVPPNQAVPIMKRPTITDYQSAESEQLMKRLRPSGHGVDEATYPAPIPQPLWSVEDLPRTVACTLSQGSSVTSMDFHPTRHTLLLVGSTNGEITLWEVGMRERLFSKPFKIWDIQACSPQFQSVAKESSISINRVTWSPDGDLIGVAFAKHLIHLHAYQQPNETRQVLEIDAHSGAVNDIAFSRPNKQLCVVTCGDDRLIKVWDMHGQKLFSFEGHEAPVYSICPHHKESIQFIFSTSLDGKIKAWLYDHMGSRVDYDAPGKWCTTMLYSADGTRLFSCGTSKDGDSYLVEWNESEGSIKRTYSGFRKKSAGVGVVQFDTAQNHILAAGEDNQIKFWDVDNTTMLSSTEADGGLPGLPRLRFNKEGNLLAVTTVDNGFKILANADGLRTLRAFGNRPFEAFRSQYEASSMKVSGAPVVAGISPNIGRMDHIDRNSPAKPSPIMNGGDPASRSIDIKPRISEERPDKAKPWELMEVLNAQQCRVATMPETPDQASKVVRLLYTNSGVGLLALGSNAIQRLWKWARNDQNPSGKATANVVPQHWQPNSGLVMQNDTADTNPEDAVPCIALSKNDSYVMSACGGKVSLFNMMTFKVMTTFMPPPPASTFLAFHPQDNNIIAIGMEDSTIHIYNVRVDEVKTRLKGHQRRITGLAFSNNLQILVSSGADAQLCVWATDTWEKKKSVAIQMPAGKTPSGDTWVQFNSDWSRLLVVHETQLAIYDASKMERIYQWIPQDALSAPISHASYSRNSQLVFAAFTDGNIGIFDVENLRLRCRIAPPAYLSSAAINSNPSVYPLVVAAHPQESNQFAVGLSDGSVKVIEPLESEGKWGTTPPTENGVPNGRTSTSSATSNPAADQIQR | – | luciferase reporter activation above background [3]: ~2 fold
OsTPL TOPLESS domain (TPD), TPL(1–209), tag removed (domain or fragment, rice, UniProt Q0J7U6 1-209, looked up) MSSLSRELVFLILQFLDEEKFKETVHKLEQESAFYFNMKHFEDLVQGGEWDEVEKYLSGFTKVEDNRYSMKIFFEIRKQKYLEALDRHDRAKAVEILVKDLKVFASFNEELFKEITQLLTLENFRQNEQLSKYGDTKSARNIMLMELKKLIEANPLFRDKLNFPPFKVSRLRTLINQSLNWQHQLCKNPRPNPDIKTLFTDHSCAAPTN | 4 | –
Arabidopsis TPL TOPLESS domain (TPD), TPL(1–209), tag removed (domain or fragment, UniProt Q94AI7 1-209, looked up) MSSLSRELVFLILQFLDEEKFKETVHKLEQESGFFFNMKYFEDEVHNGNWDEVEKYLSGFTKVDDNRYSMKIFFEIRKQKYLEALDKHDRPKAVDILVKDLKVFSTFNEELFKEITQLLTLENFRENEQLSKYGDTKSARAIMLVELKKLIEANPLFRDKLQFPTLRNSRLRTLINQSLNWQHQLCKNPRPNPDIKTLFVDHSCGPPNG | 4 | –
Arabidopsis TPR1 TOPLESS domain (TPD), TPR1(1–209), tag removed (domain or fragment, UniProt Q0WV90 1-209, looked up) MSSLSRELVFLILQFLDEEKFKETVHKLEQESGFFFNMKYFEDEVHNGNWDEVEKYLSGFTKVDDNRYSMKIFFEIRKQKYLEALDRHDRPKAVDILVKDLKVFSTFNEELFKEITQLLTLENFRENEQLSKYGDTKSARAIMLVELKKLIEANPLFRDKLQFPTLRTSRLRTLINQSLNWQHQLCKNPRPNPDIKTLFVDHSCRLPND | 4 | –
Arabidopsis TPR4 TOPLESS domain (TPD), TPR4(1–209), tag removed (domain or fragment, UniProt Q27GK7 1-209, looked up) MSSLSRELVFLILQFLDEEKFKDTVHRLEKESGFFFNMRYFEDSVTAGEWDDVEKYLSGFTKVDDNRYSMKIFFEIRKQKYLEALDKKDHAKAVDILVKELKVFSTFNEELFKEITMLLTLTNFRENEQLSKYGDTKSARGIMLGELKKLIEANPLFRDKLQFPSLKNSRLRTLINQSLNWQHQLCKNPRPNPDIKTLFVDHTCGHPNG | 4 | –
Arabidopsis TPR3 TOPLESS domain (TPD), TPR3(1–209), tag removed (domain or fragment, UniProt Q84JM4 1-209, looked up) MSSLSRELVFLILQFLEEEKFKESVHRLEKESGFFFNTKYFDEKVLAGEWDDVETYLSGFTKVDDNRYSMKIFFEIRKQKYLEALDRQEKAKAVEILVQDLRVFSTFNEELYKEITQLLTLQNFRENEQLSKYGDTKTARGIMLGELKKLIEANPLFRDKLMFPTLRSSRLRTLINQSLNWQHQLCKNPRPNPDIKTLFTDHTCTLPNG | 4 | –
OsTPR2 TOPLESS domain (TPD), TPR2(1–210), tag removed (domain or fragment, rice, UniProt Q5NBT9 1-210, looked up) MSSLSRELVFLILQFLDEEKFKETVHKLEQESGFFFNMKYFEEKVHAGEWDEVEKYLSGFTKVDDNRYSMKIFFEIRKQKYLEALDRHDRAKAVDILVKDLKVFSTFNEELYKEITQLLTLENFRENEQLSKYGDTKSARSIMLIELKKLIEANPLFREKLVFPTLKASRLRTLINQSLNWQHQLCKNPRPNPDIKTLFTDHTCTPPNGA | – | stoichiometry N (crystal structure): 4
OsTPR1 TOPLESS domain (TPD), TPR1(1–209), tag removed (domain or fragment, rice, UniProt Q10NY2 1-209, looked up) MSSLSRELVFLILQFLDEEKFKETVHKLEQESGFYFNMKYFEDEVINGNWDEVERYLGGFTKVDDNRYSMKIFFEIRKQKYLEALDKHDRSKAVEILVKDLKVFASFNEELFKEITQLLTLENFRENEQLSKYGDTKSARAIMLVELKKLIEANPLFRDKLQFPNLKSSRLRTLINQSLNWQHQLCKNPRPNPDIKTLFVDHSCGQPNG | 4 | –
DNGLELSLGLSC [monomeric NINJA EAR motif peptide (12 amino acids, untagged)] | – | IC50 [4]: 38 µM
Arabidopsis TPR2 TOPLESS domain (TPD), TPR2(1–209), tag removed (domain or fragment, UniProt Q9LRZ0 1-209, looked up) MSSLSRELVFLILQFLDEEKFKESVHKLEQESGFFFNIKYFEEKALAGEWDEVEKYLSGFTKVDDNRYSMKIFFEIRKQKYLEALDRNDRAKAVEILAKDLKVFATFNEELYKEITQLLTLENFRENEQLSKYGDTKSARSIMYTELKKLIEANPLFREKLAFPSFKASRLRTLINQSLNWQHQLCKNPRPNPDIKTLFLDHSCSPSNG | 4 | –
